{"source": "patent US20260317437", "about": "(published 2026)", "binders": {"B1": {"name": "anti-GCGR IgG1 parent (antibody, V domains shown)", "VH": "EVQLVESGGGLVQPGGSLRLSCAASGFNIYYNYIHWVRQAPGKGLEWVAEFSPYSGSTYYADSVKGRFTISADTSKNTAYLQMNSLRAEDTAVYYCARSAAIVDWYDYFKGFDYWGQGTLVTVSS", "VL": "DIQMTQSPSSLSASVGDRVTITCRASQSVSSAVAWYQQKPGKAPKLLIYSASSLYSGVPSRFSGSRSGTDFTLTISSLQPEDFATYYCQQYGSYLYTFGQGTKVEIK"}, "B2": {"name": "VH Y31A (antibody, V domains shown)", "VH": "B1 VH with Y31A", "VL": "B1 VL"}, "B3": {"name": "VL Y91A (antibody, V domains shown)", "VH": "B1 VH", "VL": "B1 VL with Y91A"}, "B4": {"name": "VH Y33A (antibody, V domains shown)", "VH": "B1 VH with Y33A", "VL": "B1 VL"}, "B5": {"name": "VL Y55A (antibody, V domains shown)", "VH": "B1 VH", "VL": "B1 VL with Y55A"}, "B6": {"name": "VH F51A (antibody, V domains shown)", "VH": "B1 VH with F51A", "VL": "B1 VL"}, "B7": {"name": "VH Y59A (antibody, V domains shown)", "VH": "B1 VH with Y59A", "VL": "B1 VL"}, "B8": {"name": "VL Y96A (antibody, V domains shown)", "VH": "B1 VH", "VL": "B1 VL with Y96A"}, "B9": {"name": "VH W100aA (antibody, V domains shown)", "VH": "B1 VH with W105A", "VL": "B1 VL"}, "B10": {"name": "VH Y54A (antibody, V domains shown)", "VH": "B1 VH with Y54A", "VL": "B1 VL"}, "B11": {"name": "VH Y30H (antibody, V domains shown)", "VH": "B1 VH with Y30H", "VL": "B1 VL"}, "B12": {"name": "VH Y100bR (antibody, V domains shown)", "VH": "B1 VH with Y106R", "VL": "B1 VL"}, "B13": {"name": "VH Y100bK (antibody, V domains shown)", "VH": "B1 VH with Y106K", "VL": "B1 VL"}, "B14": {"name": "VH W100aL (antibody, V domains shown)", "VH": "B1 VH with W105L", "VL": "B1 VL"}, "B15": {"name": "VH Y100bQ (antibody, V domains shown)", "VH": "B1 VH with Y106Q", "VL": "B1 VL"}, "B16": {"name": "VH W100aV (antibody, V domains shown)", "VH": "B1 VH with W105V", "VL": "B1 VL"}, "B17": {"name": "VH W100aF (antibody, V domains shown)", "VH": "B1 VH with W105F", "VL": "B1 VL"}, "B18": {"name": "VH Y100bH (antibody, V domains shown)", "VH": "B1 VH with Y106H", "VL": "B1 VL"}, "B19": {"name": "VL Y94K (antibody, V domains shown)", "VH": "B1 VH", "VL": "B1 VL with Y94K"}, "B20": {"name": "VH Y31H (antibody, V domains shown)", "VH": "B1 VH with Y31H", "VL": "B1 VL"}, "B21": {"name": "VH Y31W (antibody, V domains shown)", "VH": "B1 VH with Y31W", "VL": "B1 VL"}, "B22": {"name": "VH Y31D (antibody, V domains shown)", "VH": "B1 VH with Y31D", "VL": "B1 VL"}, "B23": {"name": "VH Y31I (antibody, V domains shown)", "VH": "B1 VH with Y31I", "VL": "B1 VL"}, "B24": {"name": "VH Y31K (antibody, V domains shown)", "VH": "B1 VH with Y31K", "VL": "B1 VL"}, "B25": {"name": "VH Y31R (antibody, V domains shown)", "VH": "B1 VH with Y31R", "VL": "B1 VL"}, "B26": {"name": "VH W100aR (antibody, V domains shown)", "VH": "B1 VH with W105R", "VL": "B1 VL"}, "B27": {"name": "VH Y31E (antibody, V domains shown)", "VH": "B1 VH with Y31E", "VL": "B1 VL"}, "B28": {"name": "VH Y31N (antibody, V domains shown)", "VH": "B1 VH with Y31N", "VL": "B1 VL"}, "B29": {"name": "VH Y31S (antibody, V domains shown)", "VH": "B1 VH with Y31S", "VL": "B1 VL"}, "B30": {"name": "VH W100aK (antibody, V domains shown)", "VH": "B1 VH with W105K", "VL": "B1 VL"}}, "note": "Numbering of substitutions follows the chain as printed. Names may count otherwise."}
{"target": "T1, GCGR extracellular domain (human, UniProt P47871)", "T1 sequence (P47871 26-477)": "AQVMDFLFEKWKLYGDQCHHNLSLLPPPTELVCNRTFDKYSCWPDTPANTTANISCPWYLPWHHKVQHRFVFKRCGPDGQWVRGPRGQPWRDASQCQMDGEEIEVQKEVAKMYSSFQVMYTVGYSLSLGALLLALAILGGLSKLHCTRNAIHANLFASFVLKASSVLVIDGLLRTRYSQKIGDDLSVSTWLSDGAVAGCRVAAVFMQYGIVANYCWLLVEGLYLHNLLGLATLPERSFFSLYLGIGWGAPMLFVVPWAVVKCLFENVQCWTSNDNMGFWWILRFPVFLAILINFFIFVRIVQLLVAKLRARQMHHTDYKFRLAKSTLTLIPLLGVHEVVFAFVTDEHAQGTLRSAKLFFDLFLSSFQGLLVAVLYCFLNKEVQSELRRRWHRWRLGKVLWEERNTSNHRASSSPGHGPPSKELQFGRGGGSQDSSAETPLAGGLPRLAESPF", "experiment": "SPR", "units": {"Kd": "nM"}}
{"binder": "B1", "Kd": 0.61}
{"binder": "B2", "Kd": 206}
{"binder": "B3", "Kd": 0.84}
{"binder": "B4", "Kd": 53}
{"binder": "B5", "Kd": 0.74}
{"binder": "B6", "Kd": 1.5}
{"binder": "B7", "Kd": 0.32}
{"binder": "B8", "Kd": 0.93}
{"binder": "B9", "Kd": 11}
{"binder": "B10", "Kd": 46}
{"target": "T1, GCGR extracellular domain", "experiment": "SPR", "remark": "another data set of the same source", "units": {"Kd": "nM"}}
{"binder": "B11", "Kd": 5.14}
{"binder": "B12", "Kd": 7.08}
{"binder": "B1", "Kd": 2.53}
{"binder": "B13", "Kd": 7.75}
{"binder": "B14", "Kd": 5.24}
{"binder": "B15", "Kd": 6.08}
{"binder": "B16", "Kd": 5.88}
{"binder": "B3", "Kd": 98.5}
{"binder": "B17", "Kd": 5.2}
{"binder": "B4", "Kd": 267}
{"binder": "B18", "Kd": 2.9}
{"binder": "B9", "Kd": 16.3}
{"binder": "B19", "Kd": 1.6}
{"binder": "B20", "Kd": 17.5}
{"target": "T1, GCGR extracellular domain", "experiment": "SPR", "remark": "another data set of the same source"}
{"binder": "B21", "binding result": "no binding"}
{"binder": "B2", "binding result": "no binding"}
{"binder": "B22", "binding result": "no binding"}
{"binder": "B23", "binding result": "no binding"}
{"binder": "B24", "binding result": "no binding"}
{"binder": "B25", "binding result": "no binding"}
{"binder": "B26", "binding result": "no binding"}
{"binder": "B27", "binding result": "no binding"}
{"binder": "B28", "binding result": "no binding"}
{"binder": "B29", "binding result": "no binding"}
{"binder": "B30", "binding result": "no binding"}
{"target": "T1, GCGR extracellular domain", "experiment": "SPR", "remark": "another data set of the same source", "units": {"Kd": "nM"}}
{"binder": "B11", "Kd": 5.14}
{"binder": "B12", "Kd": 7.08}
{"binder": "B1", "Kd": 2.53}
{"binder": "B13", "Kd": 7.75}
{"binder": "B14", "Kd": 5.24}
{"binder": "B15", "Kd": 6.08}
{"binder": "B16", "Kd": 5.88}
{"binder": "B17", "Kd": 5.2}
{"binder": "B18", "Kd": 2.9}
{"binder": "B19", "Kd": 1.6}
